# Results from patent US20250325664A1, “COMBINATION THERAPY WITH AN ANTI-COLONY STIMULATING FACTOR 1 RECEPTOR ANTIBODY AND A JAK INHIBITOR” (Incyte Corporation, priority 2024, published 2025).
# Key:
# [1] = Population PK/PD model of axatilimab: post-hoc exposures and pediatric simulation; parameters: species or system human; details: five participants aged 12 to 17 years in cGVHD studies vs adults of same dose groups
# Excerpt: In addition, the developed population PK/PD model for axatilimab was extrapolated to simulate PK in pediatric patients aged 12 to 17 years, using standard allometric exponents of 0.75 for clearance-related parameters and 1.0 for volume of distribution-related parameters.
# subjects with cGVHD [2] = experiment: Clinical study of axatilimab given as a single agent to subjects with cGVHD after at least two prior lines of systemic therapy
# subjects with cGVHD [3] = details: human, in vivo
substance,measurement,setting,value
"axatilimab: humanized IgG4 monoclonal antibody that binds CSF-1R; heavy chain SEQ ID NO:2, light chain SEQ ID NO:3",post-hoc PK exposures in participants aged 12 to 17 years,[1],comparable to those observed in adult participants from the same dose groups
same,participants with treatment-emergent adverse events (TEAEs),subjects with cGVHD [2]; 0.3 mg/kg Q2W,6%
same,reported CMV infections,subjects with cGVHD [2]; 0.3 mg/kg Q2W,no CMV infections were reported
same,participants with reduction in modified Lee Symptom Scale (mLSS) score ≤7 points,"subjects with cGVHD [2]; 0.3 mg/kg Q2W cohort, first 6 cycles",55%
same,"frequency of treatment-related AEs, any grade and ≥Grade 3",subjects with cGVHD [2]; 0.3 mg/kg Q2W vs 1 mg/kg Q2W vs 3 mg/kg Q4W,"showed dose dependency, with lowest incidence at 0.3 mg/kg Q2W"
same,"objective response rate (ORR), primary endpoint","subjects with cGVHD [2]; 0.3 mg/kg Q2W, first 6 cycles",73.8%
same,participants with treatment-emergent adverse events (TEAEs),subjects with cGVHD [2]; 1 mg/kg Q2W,22%
same,"objective response rate (ORR), primary endpoint","subjects with cGVHD [2]; 1 mg/kg Q2W, first 6 cycles",66.7%
same,participants with treatment-emergent adverse events (TEAEs),subjects with cGVHD [2]; 3 mg/kg Q4W,18%
same,"objective response rate (ORR), primary endpoint","subjects with cGVHD [2]; 3 mg/kg Q4W, first 6 cycles",50%
same,most common TEAEs,subjects with cGVHD [2]; all dose cohorts,"elevated aspartate aminotransferase/alanine aminotransferase (AST/ALT), creatine phosphokinase (CPK), lipase, amylase, and lactate dehydrogenase levels as well as periorbital edema"
same,reported CMV infections (number),subjects with cGVHD [2]; higher dose cohorts,2
same,severity of infections,subjects with cGVHD [3],Most infections were mild
